1 molecule from article PMC10725492 (2023) can be followed below.

No end group written: not given here. *: point of attachment. Palmitoyl = CCCCCCCCCCCCCCCC(=O)*

The assay deals with recombinant APP N-terminal (18-612) fragment (UniProt P05067-4 18-612). In words: SPR.
Chain of recombinant APP N-terminal (18-612) fragment (P05067 other isoform, or with tags, fused parts or gaps): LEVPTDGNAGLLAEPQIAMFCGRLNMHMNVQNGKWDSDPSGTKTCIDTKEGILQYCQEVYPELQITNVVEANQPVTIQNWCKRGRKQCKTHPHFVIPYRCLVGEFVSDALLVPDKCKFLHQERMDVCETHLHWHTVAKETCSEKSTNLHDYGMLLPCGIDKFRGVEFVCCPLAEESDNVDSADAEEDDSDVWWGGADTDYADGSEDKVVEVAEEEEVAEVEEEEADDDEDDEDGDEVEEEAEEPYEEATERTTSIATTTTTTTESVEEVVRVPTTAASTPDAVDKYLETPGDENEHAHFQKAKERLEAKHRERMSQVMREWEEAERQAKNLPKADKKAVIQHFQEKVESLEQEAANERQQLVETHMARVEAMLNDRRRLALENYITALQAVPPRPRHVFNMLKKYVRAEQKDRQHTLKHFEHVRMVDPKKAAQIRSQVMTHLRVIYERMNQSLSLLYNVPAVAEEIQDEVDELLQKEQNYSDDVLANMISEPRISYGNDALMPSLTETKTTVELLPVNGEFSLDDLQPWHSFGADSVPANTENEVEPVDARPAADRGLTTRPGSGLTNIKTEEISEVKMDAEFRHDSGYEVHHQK

B1: AY51 peptide (peptide)
chain: KKKKKKLKVRLASHLRK(Palmitoyl)ELRKRLLRDA
With B1, the koff was 0.000356 s⁻¹.
